One molecule from patent US20070248604A1 (Genentech, published 2007) can be followed below.

The target of test [1] is T1, hu FGF-19-His (human, UniProt O95750 25-216, limits assumed).
T1 construct: Analyte in SPR; Construct limits and tag not described; not shown: His tag
Kind of test: SPR, BIAcore-3000, antibody coupled to CM5 chip (~500 RU), FGF19-His injected 0.7-500 nM, 25 C, 1:1 Langmuir model. The procedure: Briefly, carboxymethylated dextran biosensor chips (CM5, BIAcore Inc.) were activated with N-ethyl-N′-(3-dimethylaminopropyl)-carbodiimide hydrochloride (EDC) and N-hydroxysuccinimide (NHS) according to the supplier's instructions. […] Next, 1M ethanolamine was injected to block unreacted groups. […] Association rates (kₒₙ) and dissociation rates (koff) were calculated using a simple one-to-one Langmuir binding model (BIAcore Evaluation Software version 3.2).
A general note: Surface plasmon resonance follows binding to a sensor surface in real time, without labels.

For test [2], the target named is T2, FGF19 protein (human, UniProt O95750 25-216, limits assumed).
T2 construct: 125I-labelled for the Scatchard analysis. 'Human' is stated for hu FGF-19-His and for the anti-human FGF19 antibodies, not in these assay descriptions; also called Fibroblast growth factor 19; [125I]FGF19
Kind of test: solid phase receptor binding assay, blocking: FGF19 binding to captured FGFR4-Fc with antibody titrated. The procedure: (§1) Maxisorb 96 well plates were coated overnight at 4° C. with 50 μl of 2 μg/ml anti-human immunoglobulin Fcγ fragment specific antibody (Jackson Immunoresearch) and used to capture 1 μg/ml FGFR-Fc chimeric proteins (R & D Systems).

The target in test [3] is T2, FGF19 protein. Kind of test: solid phase receptor binding assay: FGF19 binding to captured FGFR4-Fc with antibody present; solid phase receptor binding assay, blocking of FGF19 binding to FGFR4. As for the experimental part: as §1
The target in test [4] is T1, hu FGF-19-His. The experiment in a line: ELISA, FGF19-His captured on nickel plates, HRP anti-mouse IgG detection; ELISA binding EC50. From the text: (§2) Non-specific binding sites of HisGrab Nickel coated plates (Pierce) were saturated with PBS/3% BSA. […] The bound antibodies were detected using a HRP conjugated anti-mouse IgG (Jackson Immunoresearch) and the TMB peroxydase colorigenic substrate (KPL).
A general note: In an ELISA, binding on a coated surface is turned into a signal by an enzyme label.

The target of test [5] is T1, hu FGF-19-His. Kind of test: solid phase antibody binding assay: FGF19-His captured on nickel coated plates, HRP anti-mouse IgG.
Source text: as §2

T1 sequence (O95750 25-216 limits assumed): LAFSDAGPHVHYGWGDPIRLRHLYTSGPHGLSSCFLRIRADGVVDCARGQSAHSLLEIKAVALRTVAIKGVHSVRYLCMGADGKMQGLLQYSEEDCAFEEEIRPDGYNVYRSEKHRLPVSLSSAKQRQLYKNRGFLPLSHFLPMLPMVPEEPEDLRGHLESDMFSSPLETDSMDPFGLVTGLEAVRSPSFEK
T2 sequence (O95750 25-216 limits assumed): as above

B1: mouse anti-human FGF19 monoclonal antibody 1A6 (antibody, V domains shown)
VH: QVQLKQSGPGLVQPSQSLSITCTVSGFSLTTYGVHWVRQSPGKGLEWLGVIWPGGGTDYNAAFISRLSITKDNSKSQVFFKMNSLLANDTAIYFCVRKEYANLYAMDYWGQGTLLTVSA
VL: DIKMTQSPSSMYASLGERVTIPCKASQDINSFLSWFQQKPGKSPKTLIYRANRLVDGVPSRFSGSGSGQDYSLTISSLEYEDMGIYYCLQYDEFPLTFGAGTKVEIKR
notes: Mouse hybridoma monoclonal antibody, purified from ascites on protein A-agarose; also called anti-FGF19 mab 1A6; anti-FGF19 Mab 1A6
Consider B1, for which the Kd in the test with hu FGF-19-His [1] was below 0.009 nM. Also, in the test with FGF19 protein [2], the “IC50 (read off the curve)” value is around 0.5 µg/mL. For the same molecule, the IC50 with FGF19 protein [3] worked out at 3 nM. Further, a half-maximal effect with hu FGF-19-His [4] (EC50) was put at 0.04 nM. For the same molecule, the “EC50 (read off the curve)” value in the test with hu FGF-19-His [5] was around 0.03 µg/mL.

A word on the Kd: it is the equilibrium constant for the complex coming apart. The low end stands for tighter binding, the high end for weaker binding. As a reminder, the IC50 is the midpoint of a concentration-inhibition curve. The low end stands for greater potency in that assay, the high end for weaker potency in that assay. A word on the EC50: it is the concentration that produces a half-maximal response. Low readings indicate greater potency, high ones weaker potency. Usually EC50 (read off the curve) stands for the concentration giving half of the maximal effect. Low values mean higher potency in that assay, high ones lower potency in that assay.
